The record followed here is publication PMC9652331.

Common to all, as to experiment: EMSA
For series [1], the target named is HAKAI;WTAP;VIRMA (Homo sapiens;Homo sapiens;Homo sapiens) (UniProt Q75N03+Q15007+Q69YN4). Conditions: HWV (no ZC3H13); EMSA: 5 nM FAM-RNA, 20 mM HEPES pH 7.5, 100 mM KCl, 10% glycerol, 1 mM DTT, 25 C, 20 min; 8% native PAGE in 1x TBE at 4 C; Kd from loss of free RNA, Hill fit ….
The target in series [2] is HAKAI;WTAP;VIRMA;ZC3H13 (1106-1668) (Homo sapiens;Homo sapiens;Homo sapiens;Homo sapiens) (UniProt Q75N03+Q15007+Q69YN4+Q5T200). Conditions: HWVZ; EMSA: 5 nM FAM-RNA, 20 mM HEPES pH 7.5, 100 mM KCl, 10% glycerol, 1 mM DTT, 25 C, 20 min; 8% native PAGE in 1x TBE at 4 C; Kd from loss of free RNA, Hill fit ….
The target of series [3] is WTAP;VIRMA (Homo sapiens;Homo sapiens) (UniProt Q15007+Q69YN4). Conditions: WV; EMSA: 5 nM FAM-RNA, 20 mM HEPES pH 7.5, 100 mM KCl, 10% glycerol, 1 mM DTT, 25 C, 20 min; 8% native PAGE in 1x TBE at 4 C; Kd from loss of free RNA, Hill fit ….
Series [4] concerns the target WTAP;VIRMA;ZC3H13 (1106-1668) (Homo sapiens;Homo sapiens;Homo sapiens) (UniProt Q15007+Q69YN4+Q5T200). Particulars: WVZ (no HAKAI); EMSA: 5 nM FAM-RNA, 20 mM HEPES pH 7.5, 100 mM KCl, 10% glycerol, 1 mM DTT, 25 C, 20 min; 8% native PAGE in 1x TBE at 4 C; Kd from loss of free RNA, Hill fit ….

Sequence of HAKAI;WTAP;VIRMA (Homo sapiens;Homo sapiens;Homo sapiens) (Q75N03 whole entry, chain 1 of 3): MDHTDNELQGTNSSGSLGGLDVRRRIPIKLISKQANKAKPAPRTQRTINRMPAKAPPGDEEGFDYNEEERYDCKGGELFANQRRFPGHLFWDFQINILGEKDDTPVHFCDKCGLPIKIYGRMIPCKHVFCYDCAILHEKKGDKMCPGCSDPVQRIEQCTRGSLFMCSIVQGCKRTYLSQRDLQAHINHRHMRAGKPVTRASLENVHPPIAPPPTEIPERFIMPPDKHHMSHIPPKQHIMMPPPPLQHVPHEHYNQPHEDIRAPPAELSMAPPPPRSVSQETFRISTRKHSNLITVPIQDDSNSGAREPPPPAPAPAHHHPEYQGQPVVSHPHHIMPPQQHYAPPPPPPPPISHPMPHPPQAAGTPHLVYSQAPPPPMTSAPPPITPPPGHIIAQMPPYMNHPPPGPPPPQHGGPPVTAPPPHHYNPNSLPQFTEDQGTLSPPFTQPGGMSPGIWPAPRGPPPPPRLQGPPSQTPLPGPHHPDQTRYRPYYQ
Sequence of HAKAI;WTAP;VIRMA (Homo sapiens;Homo sapiens;Homo sapiens) (Q15007 whole entry, chain 2 of 3): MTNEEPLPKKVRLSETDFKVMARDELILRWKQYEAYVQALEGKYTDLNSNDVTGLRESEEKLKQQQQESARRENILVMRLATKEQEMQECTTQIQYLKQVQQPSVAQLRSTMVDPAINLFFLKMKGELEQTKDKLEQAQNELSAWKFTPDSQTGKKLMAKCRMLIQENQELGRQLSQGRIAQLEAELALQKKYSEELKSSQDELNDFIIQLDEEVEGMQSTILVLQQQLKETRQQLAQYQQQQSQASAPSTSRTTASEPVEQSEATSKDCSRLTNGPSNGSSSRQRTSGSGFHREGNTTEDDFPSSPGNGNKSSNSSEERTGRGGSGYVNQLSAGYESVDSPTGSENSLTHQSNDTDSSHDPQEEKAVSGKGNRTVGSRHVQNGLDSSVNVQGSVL
Sequence of HAKAI;WTAP;VIRMA (Homo sapiens;Homo sapiens;Homo sapiens) (Q69YN4 whole entry, chain 3 of 3): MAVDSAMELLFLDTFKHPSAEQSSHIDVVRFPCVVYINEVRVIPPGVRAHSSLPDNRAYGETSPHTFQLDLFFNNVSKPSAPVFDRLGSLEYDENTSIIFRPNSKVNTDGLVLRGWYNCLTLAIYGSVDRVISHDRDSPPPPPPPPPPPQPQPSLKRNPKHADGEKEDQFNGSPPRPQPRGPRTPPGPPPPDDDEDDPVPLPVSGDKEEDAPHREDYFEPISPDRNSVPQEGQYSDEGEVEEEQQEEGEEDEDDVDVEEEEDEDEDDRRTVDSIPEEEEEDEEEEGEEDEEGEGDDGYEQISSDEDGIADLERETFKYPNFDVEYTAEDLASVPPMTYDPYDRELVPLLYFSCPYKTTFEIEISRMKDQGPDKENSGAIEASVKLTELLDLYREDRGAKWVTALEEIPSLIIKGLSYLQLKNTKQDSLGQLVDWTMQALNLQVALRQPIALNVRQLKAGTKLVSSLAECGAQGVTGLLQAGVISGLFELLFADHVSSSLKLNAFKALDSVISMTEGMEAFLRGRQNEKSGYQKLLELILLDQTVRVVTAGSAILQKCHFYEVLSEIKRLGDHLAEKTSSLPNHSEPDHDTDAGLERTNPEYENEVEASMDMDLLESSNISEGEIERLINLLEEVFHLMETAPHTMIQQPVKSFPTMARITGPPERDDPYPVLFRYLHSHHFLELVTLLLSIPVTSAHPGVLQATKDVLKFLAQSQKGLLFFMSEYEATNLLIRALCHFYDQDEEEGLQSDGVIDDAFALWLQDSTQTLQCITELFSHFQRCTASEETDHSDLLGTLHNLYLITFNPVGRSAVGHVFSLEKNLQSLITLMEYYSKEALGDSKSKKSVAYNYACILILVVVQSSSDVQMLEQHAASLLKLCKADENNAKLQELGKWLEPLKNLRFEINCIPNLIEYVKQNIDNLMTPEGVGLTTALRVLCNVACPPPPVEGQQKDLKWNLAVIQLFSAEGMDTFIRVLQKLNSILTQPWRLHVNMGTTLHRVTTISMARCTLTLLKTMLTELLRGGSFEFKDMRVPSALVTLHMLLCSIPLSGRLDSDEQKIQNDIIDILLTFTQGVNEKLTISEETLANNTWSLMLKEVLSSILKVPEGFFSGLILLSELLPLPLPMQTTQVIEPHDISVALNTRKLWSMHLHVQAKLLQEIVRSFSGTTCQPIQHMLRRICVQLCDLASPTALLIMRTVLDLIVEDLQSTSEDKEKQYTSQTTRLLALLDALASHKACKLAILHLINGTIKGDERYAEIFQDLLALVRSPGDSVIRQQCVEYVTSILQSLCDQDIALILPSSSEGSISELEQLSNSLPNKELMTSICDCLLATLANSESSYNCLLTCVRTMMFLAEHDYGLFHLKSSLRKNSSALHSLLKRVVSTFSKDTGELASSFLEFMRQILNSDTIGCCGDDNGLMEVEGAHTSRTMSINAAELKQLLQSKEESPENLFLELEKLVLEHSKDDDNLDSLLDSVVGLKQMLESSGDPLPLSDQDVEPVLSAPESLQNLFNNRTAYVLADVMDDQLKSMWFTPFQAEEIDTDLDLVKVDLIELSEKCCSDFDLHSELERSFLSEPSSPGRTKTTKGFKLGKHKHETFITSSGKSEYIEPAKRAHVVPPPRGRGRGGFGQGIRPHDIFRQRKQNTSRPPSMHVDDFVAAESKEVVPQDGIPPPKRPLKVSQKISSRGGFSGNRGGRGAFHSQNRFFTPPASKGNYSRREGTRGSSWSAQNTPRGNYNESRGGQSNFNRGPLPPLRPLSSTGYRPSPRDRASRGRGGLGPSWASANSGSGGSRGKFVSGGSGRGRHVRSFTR
Sequence of HAKAI;WTAP;VIRMA;ZC3H13 (1106-1668) (Homo sapiens;Homo sapiens;Homo sapiens;Homo sapiens) (Q75N03 whole entry, chain 1 of 4): as the sequence (Q75N03 whole entry, chain 1 of 3) above
Sequence of HAKAI;WTAP;VIRMA;ZC3H13 (1106-1668) (Homo sapiens;Homo sapiens;Homo sapiens;Homo sapiens) (Q15007 whole entry, chain 2 of 4): as the sequence (Q15007 whole entry, chain 2 of 3) above
Sequence of HAKAI;WTAP;VIRMA;ZC3H13 (1106-1668) (Homo sapiens;Homo sapiens;Homo sapiens;Homo sapiens) (Q69YN4 whole entry, chain 3 of 4): as the sequence (Q69YN4 whole entry, chain 3 of 3) above
Sequence of HAKAI;WTAP;VIRMA;ZC3H13 (1106-1668) (Homo sapiens;Homo sapiens;Homo sapiens;Homo sapiens) (Q5T200 1106-1668, chain 4 of 4): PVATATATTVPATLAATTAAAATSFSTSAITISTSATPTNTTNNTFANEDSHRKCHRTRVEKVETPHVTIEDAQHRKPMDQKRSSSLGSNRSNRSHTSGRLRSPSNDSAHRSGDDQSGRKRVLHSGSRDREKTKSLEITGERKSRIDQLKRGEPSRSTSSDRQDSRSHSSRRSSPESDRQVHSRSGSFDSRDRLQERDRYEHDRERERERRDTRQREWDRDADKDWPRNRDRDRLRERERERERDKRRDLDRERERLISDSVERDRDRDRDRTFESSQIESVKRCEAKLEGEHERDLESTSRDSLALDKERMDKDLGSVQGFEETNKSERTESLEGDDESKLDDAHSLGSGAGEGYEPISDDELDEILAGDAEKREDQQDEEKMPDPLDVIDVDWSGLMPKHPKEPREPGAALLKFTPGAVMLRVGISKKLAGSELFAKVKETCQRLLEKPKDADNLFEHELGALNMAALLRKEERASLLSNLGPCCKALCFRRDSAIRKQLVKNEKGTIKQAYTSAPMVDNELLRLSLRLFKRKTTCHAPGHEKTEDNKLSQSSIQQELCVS
Sequence of WTAP;VIRMA (Homo sapiens;Homo sapiens) (Q15007 whole entry, chain 1 of 2): as the sequence (Q15007 whole entry, chain 2 of 3) above
Sequence of WTAP;VIRMA (Homo sapiens;Homo sapiens) (Q69YN4 whole entry, chain 2 of 2): as the sequence (Q69YN4 whole entry, chain 3 of 3) above
Sequence of WTAP;VIRMA;ZC3H13 (1106-1668) (Homo sapiens;Homo sapiens;Homo sapiens) (Q15007 whole entry, chain 1 of 3): as the sequence (Q15007 whole entry, chain 2 of 3) above
Sequence of WTAP;VIRMA;ZC3H13 (1106-1668) (Homo sapiens;Homo sapiens;Homo sapiens) (Q69YN4 whole entry, chain 2 of 3): as the sequence (Q69YN4 whole entry, chain 3 of 3) above
Sequence of WTAP;VIRMA;ZC3H13 (1106-1668) (Homo sapiens;Homo sapiens;Homo sapiens) (Q5T200 1106-1668, chain 3 of 3): as the sequence (Q5T200 1106-1668, chain 4 of 4) above

Take “GGCCCCUCCAUCGUCCACCGCAAAUGCUUCUAGGCGGACUAUGACUUAGUUGCGUUACACCCUUUCUUGACAAAACCUAACUUGCACAGAAAACA [ACTB-1 RNA]”: the Kd was 563 nM in series [1], 214 nM in series [2], 826 nM in series [3] and 256 nM in series [4].
